Test results from publication PMC10352329.

Assays:
[1] = system: p300 BRP wild-type (Homo sapiens); assay: MST; settings: human octamer H2A type 1-B/E, H2B type 1-J, MST and cryo-EM sample buffers not in the material, MST 10 µM CBP30 where stated
[2] = system: p300 BRP 4A (Homo sapiens); assay: MST; settings: human octamer H2A type 1-B/E, H2B type 1-J, MST and cryo-EM sample buffers not in the material, MST 10 µM CBP30 where stated
[3] = molecular target: human p300BRP (residues 1048–1282), wild type (human) (UniProt Q09472); assay: MST; p300BRP fluorescently labeled (His tag Labeling Kit), 2-fold serial dilutions of 180-bp nucleosome; 10 mM HEPES-NaOH pH 7.4, 150 mM NaCl, 0.05% Tween-20; 25 °C; Hill equation, half-saturation concentration (K1/2)
Sequence of human p300BRP (residues 1048–1282), wild type (human) (Q09472 1048-1282): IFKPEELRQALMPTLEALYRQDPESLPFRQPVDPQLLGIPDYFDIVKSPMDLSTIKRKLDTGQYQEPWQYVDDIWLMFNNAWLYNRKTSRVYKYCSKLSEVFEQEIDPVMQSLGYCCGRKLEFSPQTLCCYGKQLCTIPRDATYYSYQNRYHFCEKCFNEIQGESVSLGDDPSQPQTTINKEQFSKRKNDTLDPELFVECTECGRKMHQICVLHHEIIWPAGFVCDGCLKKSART

[4] = molecular target: Histone H4 K8ac/K12ac (Homo sapiens) (UniProt P62805); settings: cited from earlier work
[5] = molecular target: Histone H4 K12ac/K16ac (Homo sapiens) (UniProt P62805); settings: cited from earlier work
[6] = molecular target: human p300BRP (residues 1048–1282), 4A-substituted mutant (R1133A, K1134A, R1137A, K1140A) (human) (UniProt Q09472); assay: MST; p300BRP fluorescently labeled (His tag Labeling Kit), 2-fold serial dilutions of 180-bp nucleosome; 10 mM HEPES-NaOH pH 7.4, 150 mM NaCl, 0.05% Tween-20; 25 °C; Hill equation, half-saturation concentration (K1/2)
Sequence of human p300BRP (residues 1048–1282), 4A-substituted mutant (R1133A, K1134A, R1137A, K1140A) (human) (Q09472 1048-1282 R1133A/K1134A/R1137A/K1140A): as the sequence (Q09472 1048-1282) above, with R86A, K87A, R90A, K93A counted along it

[7] = molecular target: human p300BRP (residues 1048–1282), wild type (human) (UniProt Q09472); assay: MST; as a2, but p300BRP incubated beforehand with 10 μM CBP30 (inhibitor of the bromodomain pocket) for at least 20 min
[8] = molecular target: human p300BRP (residues 1048–1282), 4A-substituted mutant (R1133A, K1134A, R1137A, K1140A) (human) (UniProt Q09472); assay: as above
[9] = no CBP30, H3.1, H4 with K12ac/K16ac

For H4acNuc (180-bp, H4K12ac/K16ac), the K half ([1]; H3.1, H4 with K12ac/K16ac) was 1.2 nM, the K half [1, 9] was 0.35 nM and the K half ([2]; H3.1, H4 with K12ac/K16ac) was 3.5 nM. For the same substance, the K half [2, 9] was 1.8 nM.
“180-bp unmodified nucleosome (from UniProt P04908 1-130; P68431 1-136; P62805 1-103) (complex)” gave a K1/2 (half-saturation concentration) [3] of 2.2 nM.
For “p300/CBP bromodomain bromodomain (from UniProt Q09472)”, the Kd [4] is listed as 90 µM and the Kd [5] is listed as 25 µM.
unmodified 180-bp nucleosome showed a K half ([1]; no CBP30, H3.1, H4, unmodified) of 2.2 nM and a K half ([2]; no CBP30, H3.1, H4, unmodified) of 7.3 nM.
“180-bp nucleosome having H4K12ac/K16ac (H4acNuc) (from UniProt P04908 1-130; P68431 1-136; P62805 1-103) (complex)” gave a K1/2 (half-saturation concentration) [3] of 0.35 nM, a K1/2 (half-saturation concentration) [6] of 1.8 nM and a K1/2 (half-saturation concentration) after incubation with CBP30 [7] of 1.2 nM. For the same substance, the K1/2 (half-saturation concentration) after incubation with CBP30 [8] was 3.5 nM.
